In patent publication US20220411483A1 (Chugai, published 2022):
Where a chain is given by its changes, count along the chain named. In names and notes the source's numbering stands.

T1: FcgRIIaR (human, UniProt P12318 34-217)
T1 construct: extracellular domain; also called FcγRIIa R type; FcγRIIa (R type)
T1 sequence (looked up): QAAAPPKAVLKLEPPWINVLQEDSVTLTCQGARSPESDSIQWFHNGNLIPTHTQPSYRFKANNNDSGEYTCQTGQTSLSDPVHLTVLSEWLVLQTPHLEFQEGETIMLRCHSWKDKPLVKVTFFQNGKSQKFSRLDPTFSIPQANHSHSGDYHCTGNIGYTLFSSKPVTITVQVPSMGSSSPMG

T2: FcgRIIb (human, UniProt P31994 43-217)
T2 construct: extracellular domain; also called FcγRIIb
T2 sequence (looked up): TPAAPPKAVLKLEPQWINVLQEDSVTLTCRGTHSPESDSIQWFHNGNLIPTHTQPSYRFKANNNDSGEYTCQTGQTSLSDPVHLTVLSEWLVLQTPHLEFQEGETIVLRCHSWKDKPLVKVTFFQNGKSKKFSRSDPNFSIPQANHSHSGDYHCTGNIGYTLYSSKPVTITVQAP

T3: FcgRIIaH (human, UniProt P12318 34-217)
T3 construct: extracellular domain; also called FcγRIIa H type
T3 sequence (looked up): T1 sequence (looked up) with R134H

T4: FcγRIIa R type extracellular domain, His tag (human, UniProt P12318 34-217)
T4 construct: extracellular domain; also called FcgRIIaR
T4 sequence (looked up): T1 sequence (looked up)

T5: FcγRIIb extracellular domain, His tag (human, UniProt P31994 43-217)
T5 construct: extracellular domain; also called FcgRIIb
T5 sequence (looked up): T2 sequence (looked up)

B1: IL6R-P636/IL6R-L (antibody, human IgG1, kappa)
heavy: QVQLQESGPGLVKPSETLSLTCAVSGHSISHDHAWSWVRQPPGEGLEWIGFISYSGITNYNPSLQGRVTISRDNSKNTLYLQMNSLRAEDTAVYYCARSLARTTAMDYWGEGTLVTVSSASTKGPSVFPLAPSSKSTSGGTAALGCLVKDYFPEPVTVSWNSGALTSGVHTFPAVLQSSGLYSLSSVVTVPSSSLGTQTYICNVNHKPSNTKVDKKVEPKSCDKTHTCPPCPAPDLLGGDSVFLFPPKPKDTLMISRTPEVTCVVIDVREEDGEVKFNWYVDGVEVHNAKTKPREEQYNSTYRVVSVLTVLHQDWLNGKEYKCKVSNKALPAPIEKTISKAKGQPREPQVYTLPPSRDELTKNQVSLTCLVKGFYPSDIAVEWESNGQPENNYKTTPPVLDSDGSFFLYSKLTVDKSRWQQGNVFSCSVMHEALHNHYTQKSLSLSP
light: not shown
B2: IL6R-P625/IL6R-L (antibody, human IgG1, kappa)
heavy: B1 heavy with L236K, R269A
light: not shown
B3: IL6R-P626/IL6R-L (antibody, human IgG1, kappa)
heavy: B1 heavy with L236R, R269A
light: not shown
B4: IL6R-P629/IL6R-L (antibody, human IgG1, kappa)
heavy: B1 heavy with G239K, R269A
light: not shown
B5: IL6R-P665/IL6R-L (antibody, human IgG1, kappa)
heavy: B1 heavy with G239D, R269A, Y298D, N299A, A332R, P398M
light: not shown
notes: also called IL6R-P665/1L6R-L
B6: IL6R-P652/IL6R-L (antibody, human IgG1, kappa)
heavy: B1 heavy with G239D, R269Y, Y298D, A332R, P398M
light: not shown
B7: IL6R-P631/IL6R-L (antibody, human IgG1, kappa)
heavy: B1 heavy with D267N, R269A
light: not shown
B8: IL6R-BP361/IL6R-L (antibody, human IgG1, kappa, name in EU numbering)
heavy: B1 heavy with G239D, I266V, K441E
light: not shown
B9: IL6R-BP267/IL6R-L (antibody, human IgG1, kappa)
heavy: B1 heavy with G239D, I266V, R269S, K441E
light: not shown
notes: IL6R-BF648 with E233D/G237D/H268E/P271G
B10: IL6R-BP325/IL6R-L (antibody, human IgG1, kappa, name in EU numbering)
heavy: B1 heavy with G239D, I266V, D267S, R269S, K441E
light: not shown
B11: IL6R-BP324/IL6R-L (antibody, human IgG1, kappa, name in EU numbering)
heavy: B1 heavy with G239D, I266V, D267R, R269S, K441E
light: not shown
B12: IL6R-BP321/IL6R-L (antibody, human IgG1, kappa, name in EU numbering)
heavy: B1 heavy with G239D, I266V, D267N, R269S, K441E
light: not shown
B13: IL6R-BP355/IL6R-L (antibody, human IgG1, kappa, name in EU numbering)
heavy: B1 heavy with G239D, I266V, R269K, K441E
light: not shown
B14: IL6R-BP318/IL6R-L (antibody, human IgG1, kappa, name in EU numbering)
heavy: B1 heavy with G239D, I266V, D267K, R269S, K441E
light: not shown
B15: IL6R-F652/IL6R-L (antibody, human IgG1, kappa)
heavy: B1 heavy with D235E, M254Y, I266V, R269S, E270H, G273P, N436Y
light: not shown
notes: IL6R-F648 (P238D) with M252Y and N434Y
B16: IL6R-PD004/IL6R-L (antibody, human IgG1, kappa)
heavy: B1 heavy with D235E, M254Y, I266V, R269S, E270P, G273P, N436Y
light: not shown
B17: IL6R-PD013/IL6R-L (antibody, human IgG1, kappa)
heavy: B1 heavy with D235E, M254Y, I266V, R269S, E270H, G273P, S326H, N436Y
light: not shown
B18: IL6R-PD047/IL6R-L (antibody, human IgG1, kappa)
heavy: B1 heavy with D235E, L237F, M254Y, I266V, R269S, E270H, G273P, N436Y
light: not shown
B19: IL6R-PD012/IL6R-L (antibody, human IgG1, kappa)
heavy: B1 heavy with D235E, M254Y, I266V, R269S, E270H, G273P, S326N, N436Y
light: not shown
B20: IL6R-PD023/IL6R-L (antibody, human IgG1, kappa)
heavy: B1 heavy with D235E, M254Y, I266V, R269S, E270H, G273P, A332H, N436Y
light: not shown
B21: IL6R-PD089/IL6R-L (antibody, human IgG1, kappa)
heavy: B1 heavy with D235E, G239Q, M254Y, I266V, R269S, E270H, G273P, N436Y
light: not shown
B22: IL6R-PD024/IL6R-L (antibody, human IgG1, kappa)
heavy: B1 heavy with D235E, M254Y, I266V, R269S, E270H, G273P, A332Y, N436Y
light: not shown

Target: T1, FcgRIIaR
Test: SPR (Biacore)

Point of comparison: B5, “Relative FcgRIIaR-binding Activity” value 0.025 KD(G1d)/KD(variant). Against it:
- B1 — lower, 0.023 KD(G1d)/KD(variant)
- B2 — higher, 0.051 KD(G1d)/KD(variant)
- B3 — higher, 0.041 KD(G1d)/KD(variant)
- B4 — higher, 0.047 KD(G1d)/KD(variant)
- B6 — higher, 0.051 KD(G1d)/KD(variant)
- B7 — higher, 0.048 KD(G1d)/KD(variant)

Target: T2, FcgRIIb
Test: SPR (Biacore)

Point of comparison: B5, “Relative FcgRIIb-binding Activity” value 1.6 KD(G1d)/KD(variant). Against it:
- B1 — higher, 1.77 KD(G1d)/KD(variant)
- B2 — higher, 3.06 KD(G1d)/KD(variant)
- B3 — higher, 1.9 KD(G1d)/KD(variant)
- B4 — higher, 7.97 KD(G1d)/KD(variant)
- B6 — higher, 4.18 KD(G1d)/KD(variant)
- B7 — lower, 1.16 KD(G1d)/KD(variant)

Target: T6, FcgRIIIaV (human, UniProt P08637 17-208)
T6 construct: extracellular domain; also called FcγRIIIa V type
T6 sequence (P08637 17-208 F176V): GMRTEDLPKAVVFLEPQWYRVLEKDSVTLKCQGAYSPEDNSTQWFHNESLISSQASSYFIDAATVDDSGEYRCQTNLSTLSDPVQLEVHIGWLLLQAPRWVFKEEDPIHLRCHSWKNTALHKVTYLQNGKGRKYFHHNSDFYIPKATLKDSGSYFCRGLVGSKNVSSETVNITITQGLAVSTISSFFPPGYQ
Test: SPR (Biacore)

Point of comparison: B1, “Relative FcgRIIIaV-binding Activity” value 0.008 KD(G1d)/KD(variant). Against it:
- B2 — lower, 0.005 KD(G1d)/KD(variant)
- B3 — lower, 0.005 KD(G1d)/KD(variant)
- B4 — lower, 0.007 KD(G1d)/KD(variant)
- B5 — lower, 0.005 KD(G1d)/KD(variant)
- B6 — lower, 0.005 KD(G1d)/KD(variant)
- B7 — lower, 0.007 KD(G1d)/KD(variant)

Target: T3, FcgRIIaH
Test: SPR (Biacore)

Point of comparison: B4, “Relative FcgRIIaH-binding Activity” value 0.01 KD(G1d)/KD(variant). Against it:
- B1 — lower, 0.006 KD(G1d)/KD(variant)
- B2 — lower, 0.005 KD(G1d)/KD(variant)
- B3 — lower, 0.005 KD(G1d)/KD(variant)
- B5 — lower, 0.002 KD(G1d)/KD(variant)
- B6 — lower, 0.006 KD(G1d)/KD(variant)
- B7 — the same, 0.01 KD(G1d)/KD(variant)

Target: T7, FcgRIa (human, UniProt P12314 16-292)
T7 construct: also called FcγRIa; FcγRI
T7 sequence (P12314 16-292): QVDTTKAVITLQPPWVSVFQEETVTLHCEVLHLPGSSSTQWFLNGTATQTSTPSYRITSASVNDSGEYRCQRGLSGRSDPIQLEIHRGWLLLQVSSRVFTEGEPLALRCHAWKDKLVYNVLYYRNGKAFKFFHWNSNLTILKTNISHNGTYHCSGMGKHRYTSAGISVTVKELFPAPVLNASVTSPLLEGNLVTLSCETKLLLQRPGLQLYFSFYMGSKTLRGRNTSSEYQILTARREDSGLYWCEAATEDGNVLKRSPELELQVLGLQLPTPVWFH
Test: SPR (Biacore)

Point of comparison: B2, “Relative FcgRIa-binding Activity” value 0.0007 KD(G1d)/KD(variant). Against it:
- B1 — the same, 0.0007 KD(G1d)/KD(variant)
- B3 — lower, 0.0004 KD(G1d)/KD(variant)
- B4 — higher, 0.1 KD(G1d)/KD(variant)
- B5 — lower, 0.0002 KD(G1d)/KD(variant)
- B6 — lower, 0.0005 KD(G1d)/KD(variant)
- B7 — higher, 0.03 KD(G1d)/KD(variant)

Target: T1, FcgRIIaR
Test: SPR, amount bound per captured antibody

Point of comparison: B14, “Relative FcgRIIaR-binding Activity” value 4.3 IL6R-BP267/IL6R-L=100. Against it:
- B8 — higher, 17.3 IL6R-BP267/IL6R-L=100
- B9 — higher, 100 IL6R-BP267/IL6R-L=100
- B10 — higher, 11.6 IL6R-BP267/IL6R-L=100
- B11 — lower, 3.7 IL6R-BP267/IL6R-L=100
- B12 — higher, 16.3 IL6R-BP267/IL6R-L=100
- B13 — higher, 11.6 IL6R-BP267/IL6R-L=100

Target: T2, FcgRIIb
Test: SPR, amount bound per captured antibody

Point of comparison: B12, “Relative FcgRIIb-binding Activity” value 31.7 IL6R-BP267/IL6R-L=100. Against it:
- B8 — lower, 27.7 IL6R-BP267/IL6R-L=100
- B9 — higher, 100 IL6R-BP267/IL6R-L=100
- B10 — lower, 21 IL6R-BP267/IL6R-L=100
- B11 — lower, 3.2 IL6R-BP267/IL6R-L=100
- B13 — lower, 14.4 IL6R-BP267/IL6R-L=100
- B14 — lower, 2.3 IL6R-BP267/IL6R-L=100

Target: T4, FcγRIIa R type extracellular domain, …
Test: SPR, bound amount per captured antibody

Point of comparison: B18, “Relative FcgRIIaR-binding Activity” value 89.9 % of IL6R-F652/IL6R-L. Against it:
- B15 — higher, 100 % of IL6R-F652/IL6R-L
- B16 — lower, 77 % of IL6R-F652/IL6R-L
- B17 — higher, 90.8 % of IL6R-F652/IL6R-L
- B19 — higher, 92.5 % of IL6R-F652/IL6R-L
- B20 — lower, 73.9 % of IL6R-F652/IL6R-L
- B21 — lower, 65 % of IL6R-F652/IL6R-L
- B22 — lower, 60 % of IL6R-F652/IL6R-L

Target: T5, FcγRIIb extracellular domain, His tag
Test: SPR, bound amount per captured antibody

Point of comparison: B17, “Relative FcgRIIb-binding Activity” value 91.9 % of IL6R-F652/IL6R-L. Against it:
- B15 — higher, 100 % of IL6R-F652/IL6R-L
- B16 — lower, 80.5 % of IL6R-F652/IL6R-L
- B18 — higher, 95.4 % of IL6R-F652/IL6R-L
- B19 — higher, 102 % of IL6R-F652/IL6R-L
- B20 — higher, 102 % of IL6R-F652/IL6R-L
- B21 — lower, 66 % of IL6R-F652/IL6R-L
- B22 — lower, 74.4 % of IL6R-F652/IL6R-L

Target: T1, FcgRIIaR
Test: SPR, amount bound per captured antibody
Remark: another data set of the same source

Point of comparison: B7, “Relative FcgRIIaR-binding Activity” value 26.7 IL6R-G1d/IL6R-L=100. Against it:
- B1 — lower, 13.8 IL6R-G1d/IL6R-L=100
- B2 — higher, 26.8 IL6R-G1d/IL6R-L=100
- B3 — lower, 24.4 IL6R-G1d/IL6R-L=100
- B4 — higher, 29.9 IL6R-G1d/IL6R-L=100
- B5 — lower, 15 IL6R-G1d/IL6R-L=100
- B6 — higher, 27.5 IL6R-G1d/IL6R-L=100

Target: T2, FcgRIIb
Test: SPR, amount bound per captured antibody
Remark: another data set of the same source

Point of comparison: B2, “Relative FcgRIIb-binding Activity” value 141 IL6R-G1d/IL6R-L=100. Against it:
- B1 — lower, 120 IL6R-G1d/IL6R-L=100
- B3 — lower, 129 IL6R-G1d/IL6R-L=100
- B4 — higher, 164 IL6R-G1d/IL6R-L=100
- B5 — lower, 121 IL6R-G1d/IL6R-L=100
- B6 — higher, 149 IL6R-G1d/IL6R-L=100
- B7 — lower, 110 IL6R-G1d/IL6R-L=100
